Here are results for two molecules from PMC3252381, “Trypanosoma cruzi trans-Sialidase in Complex with a Neutralizing Antibody: Structure/Function Studies towards the Rational Design of Inhibitors” (PLoS Pathogens, 2012).

For assay [1], the target named is recombinant Trypanosoma cruzi trans-sialidase (construct not stated for these experiments) (Trypanosoma cruzi) (UniProt Q26966).
Assay [2] deals with T1, recombinant Trypanosoma cruzi trans-sialidase (construct not stated for these experiments) (Trypanosoma cruzi, strain  …, UniProt Q26966). In words: cell-based or functional assay.
Assay [3] deals with T1, recombinant Trypanosoma cruzi …. In words: ITC; raw data not shown; done in the laboratory of Dr. Alan Cooper; conditions not stated. As to conditions: both partners purified.
For assay [4] the target is unchanged. In words: SPR; BIAcore 2000; purified mAb 13G9 amine-coupled to a CM5 chip; TS (1 nM to 10 µM) injected at 50 µl/min in HBS-EP (150 mM NaCl, 0.05% P20, 10 mM HEPES pH 7.4); KD calculated from the kinetic constants; apparent. The conditions noted are these: both partners purified.

B1: Fab fragment of mAb 13G9 (Fab, V domains shown)
VH: VKLQQSGVELVRPGTSVKMSCKAVGYTFTYDWIGWVKQRPGHGLEWIGDIYLGGGYINYNEKFKGKVILTADTSSSTAYMQLSSLTSEDSAIYYCARGHYDGSYFDYWGQGTTLTVSS
VL: DVLMTQTPTIMSASIGEEITLTCSASSSVSHMHWYQHKSGTSPKLLIYITSYLASGVPSRFSGSGSGTFYSLTISSVEAEDAADYYCHQWSTFPSTFGSGTKLEIK
As to B1, the IC50 of inhibition of TS activity (remnant activity of 2 ng TS with sialyllactose and [14C]-lactose, increasing amounts of purified Fab) in assay [1] came out at 1.6 nM.

B2: TS-neutralizing mouse monoclonal antibody 13G9 (IgG2aκ) (antibody, V domains shown)
VH: B1 VH
VL: B1 VL
notes: they are those of the Fab heavy chain in PDB 3OPZ (chain H; also I and J); rest of the mouse IgG2a heavy chain constant region beyond the Fab (hinge, CH2, CH3); the antibody was typed as IgG2aκ; they are those of the Fab light chain in PDB 3OPZ (chain L; also M and N); also called mAb 13G9; 13G9 mAb; source: 13G9 hybridoma culture supernatant; purified (Protein A-Sepharose, MonoQ) or used as …
Consider B2, for which, in assay [2], the “IC50 of inhibition of TS activity (remnant activity of 2 ng TS with sialyllactose and [14C]-lactose, increasing amounts of whole 13G9 IgG)” value came out at 0.056 nM. Also, the Kd is under 1 nM in assay [3] and about 0.72 nM in assay [4].
